Measurements as given in US20090087428A1 (Genentech, published 2009).
Numbering of substitutions follows the chain as printed. “And” between values parts separate entries of the source, which are not always exact repeats. Equal values may be shown once.

B1: 5A6/22E7 knob in holes, wild type hinge, bispecific antibody (bispecific antibody)
chain 1: EVKLEESGGGLVQPGGSMKLSCVASGFTFSDAWMDWVRQSPERGLEWVAEIRSKPNNHATYYAESVKGRFTISRDDSKSSVYLQMTSLRPEDTGIYYCTHFDYWGQGTTLTVSSAKTTGPSVFPLAPSSKSTSGGTAALGCLVKDYFPEPVTVSWNSGALTSGVHTFPAVLQSSGLYSLSSVVTVPSSSLGTQTYICNVNHKPSNTKVDKKVEPKSCDKTHTCPPCPAPELLGGPSVFLFPPKPKDTLMISRTPEVTCVVVDVSHEDPEVKFNWYVDGVEVHNAKTKPREEQYNSTYRVVSVLTVLHQDWLNGKEYKCKVSNKALPAPIEKTISKAKGQPREPQVYTLPPSRDELTKNQVSLWCLVKGFYPSDIAVEWESNGQPENNYKTTPPVLDSDGSFFLYSKLTVDKSRWQQGNVFSCSVMHEALHNHYTQKSLSLSPEL
chain 2: DIQMTQSPSSLSASLGERVSLTCRASQEISGYLSWFQQKPDGTIKRLIYAASALDSGVPKRFSGSWSGSDYSLTISSLESEDFADYYCLQYVSYPLTFGAGTKLELKRTVAAPSVFIFPPSDEQLKSGTASVVCLLNNFYPREAKVQWKVDNALQSGNSQESVTEQDSKDSTYSLSSTLTLSKADYEKHKVYACEVTHQGLSSPVTKSFNRGEC
chain 3: not shown
chain 4: DIMMTQSPSSMYASLGERVTITCKASQDINSYLSWFQQKPGKSPKTLISRANRLVDGVPSRFSGSGSGQDYSLTISSLEYEDMGIYYCLQYDDFPFTFGGGTKVEIKRTVAAPSVFIFPPSDEQLKSGTASVVCLLNNFYPREAKVQWKVDNALQSGNSQESVTEQDSKDSTYSLSSTLTLSKADYEKHKVYACEVTHQGLSSPVTKSFNRGEC
B2: 22E7 MAb (anti-human FcεRI monoclonal antibody) (antibody)
chain 1: EVKLVESGGGLVKPGGSLKLSCAASGFTFSSYGMSWVRQTPEKRLEWVATISGGNNYTFYPDNLKGRFTISRDNAKNILYLQISSLRSVDTALYYCASLWYRASFAYWGQGTLVTVSS
chain 2: DIMMTQSPSSMYASLGERVTITCKASQDINSYLSWFQQKPGKSPKTLISRANRLVDGVPSRFSGSGSGQDYSLTISSLEYEDMGIYYCLQYDDFPFTFGGGTKVEIK
B3: 5A6/22E7 knob in holes, hingeless bispecific antibody (anti-FcγRIIB/anti-FcεRI) (bispecific antibody)
chain 1: B1 chain 1 with C223S, C226S
chain 2: B1 chain 2
chain 3: EVKLVESGGGLVKPGGSLKLSCAASGFTFSSYGMSWVRQTPEKRLEWVATISGGNNYTFYPDNLKGRFTISRDNAKNILYLQISSLRSVDTALYYCASLWYRASFAYWGQGTLVTVSSAKTTGPSVFPLAPSSKSTSGGTAALGCLVKDYFPEPVTVSWNSGALTSGVHTFPAVLQSSGLYSLSSVVTVPSSSLGTQTYICNVNHKPSNTKVDKKVEPKSCDKTHTSPPSPAPELLGGPSVFLFPPKPKDTLMISRTPEVTCVVVDVSHEDPEVKFNWYVDGVEVHNAKTKPREEQYNSTYRVVSVLTVLHQDWLNGKEYKCKVSNKALPAPIEKTISKAKGQPREPQVYTLPPSRDELTKNQVSLSCAVKGFYPSDIAVEWESNGQPENNYKTTPPVLDSDGSFFLVSKLTVDKSRWQQGNVFSCSVMHEALHNHYTQKSLSLSPEL
chain 4: B1 chain 4
B4: huFcεRIα extracellular domain (huFcεRIα ECD) (receptor, human, UniProt P12319 26-205, looked up)
chain: VPQKPKVSLNPPWNRIFKGENVTLTCNGNNFFEVSSTKWFHNGSLSEETNSSLNIVNAKFEDSGEYKCQHQQVNESEPVYLEVFSDWLLLQASAEVVMEGQPLFLRCHGWRNWDVYKVIYYKDGEALKYWYENHNISITNATVEDSGTYYCTGKVWQLDYESEPLNITVIKAPREKYWLQ
notes: extracellular domain; also called huFcεRI ECD
B5: huFcγRIIB extracellular domain with C-terminal His6 tag (huFcγRIIB ECD) (receptor)
chain: TPAAPPKAVLKLEPQWINVLQEDSVTLTCRGTHSPESDSIQWFHNGNLIPTHTQPSYRFKANNNDSGEYTCQTGQTSLSDPVHLTVLSEWLVLQTPHLEFQEGETIVLRCHSWKDKPLVKVTFFQNGKSKKFSRSDPNFSIPQANHSHSGDYHCTGNIGYTLYSSKPVTITVQAPHHHHHH
notes: Whole entry named; only the extracellular domain is in the construct; Baculovirus expression
B6: Antibody 5A6.2.1 (anti-human FcγRIIB monoclonal antibody) (antibody)
VH: EVKLEESGGGLVQPGGSMKLSCVASGFTFSDAWMDWVRQSPERGLEWVAEIRSKPNNHATYYAESVKGRFTISRDDSKSSVYLQMTSLRPEDTGIYYCTHFDYWGQGTTLTVSSAKTTGPSVFPLAPSSKSTSGGTAALGCLVKDYFPEPVTVSWNSGALTSGVHTFPAVLQSSGLYSLSSVVTVPSSSLGTQTYICNVNHKPSNTKVDKKVEPKSCDKTHT
VL: B1 chain 2
notes: 5A6(A) and 5A6(B) are two protein preps of 5A6; also called 5A6 MAb; 5A6 mIgG1

Assays:
[1] = biological target: T1, huFcεRI-ECD-Fc (IgE receptor fusion) (human, UniProt P12319 26-205); experiment: sandwich (bridging) ELISA, FIG. 30: plate huFcεRI-ECD-Fc, antibody titrated, then FcγRIIB-His6-GST and anti-GST-biotin/streptavidin-HRP; signal needs both arms
T1 construct: extracellular domain; not shown: Fc part
T1 sequence (looked up): B4 chain
Description: ELISA plates were coated overnight at 4° C. with 100 μl of a 1 μg/ml solution of huFcεRI-ECD-Fc in PBS, pH 7.4. The plate was washed with PBS and blocked with 1% Casein blocker in PBS. The wells were washed three times with PBS/0.05% TWEEN®. Serial dilutions of 5A6/22E7 bispecific antibodies, 5A6 antibodies, or 22E7 antibody were prepared in ELISA Diluent buffer and added to wells at 100 μl/well of each dilution. The plates were incubated for 1 hour at room temperature. After washing the plate three times with PBS/0.05% TWEEN®, FcγRIIB-His₆-GST was added to each well at 100 μl of 1 μg/ml in the presence of 10 μg/ml of CD4-IgG to block FcγRIIB-His₆-GST binding to Fc portion of the test antibody, huFcεRI-ECD-Fc and secondary antibody (anti-GST-biotin) and incubated for 1 hour at room temperature. After washing the plate three times with PBS/0.05% TWEEN®, 100 μl of 1 μg/ml anti-GST-biotin was added to each well and incubated for 1 hour at room temperature. The plate was washed with PBS/0.05% TWEEN® and incubated 30 minutes with 100 μl/well of 1:2000 Streptavidin-HRP in Elisa diluent buffer. After washing with PBS/0.05% TWEEN®, the plate was incubated 5 minutes with 100 μl TMB substrate. The reaction was quenched with 100 μl/well stop solution and the plate read at 630 nm. […]

[2] = biological target: T2, GST-huFcγRIIB (human FcγRIIB extracellular domain-Gly-His6-GST fusion protein) (human, UniProt P08515 1-218 = GST); experiment: sandwich (bridging) ELISA, FIG. 29: plate FcγRIIB-His6-GST, antibody titrated, then huFcεRI-ECD-Fc and IgE-biotin/streptavidin-HRP; signal needs both arms
T2 construct: Expressed in 293 cells; also called FcγRIIB-His6-GST; huFcγRIIB-His6-GST

[3] = biological target: T1, huFcεRI-ECD-Fc (IgE receptor fusion); experiment: sandwich (bridging) ELISA, FIG. 30: plate huFcεRI-ECD-Fc, antibody titrated, then FcγRIIB-His6-GST and anti-GST-biotin/streptavidin-HRP; signal needs both arms, so the value does not measure 22E7 on FcεRI alone
[4] = biological target: B3; experiment: flow cytometry, RBL huFcεRI+huFcγRIIB1 and +huFcγRIIB2 cells (FIGS. 40, 41)
[5] = biological target: T2, GST-huFcγRIIB (human FcγRIIB …); experiment: ELISA, plate-coated GST fusion (FIG. 6)
[6] = biological target: T3, native human FcγRIIA (CD32A) on K562 erythroleukemia cells (human, UniProt P12318 34-317); experiment: indirect immunofluorescence, flow cytometry on K562 cells (FIG. 16)
T3 construct: also called huFcγRIIA (CD32A); native FcγRIIA
T3 sequence: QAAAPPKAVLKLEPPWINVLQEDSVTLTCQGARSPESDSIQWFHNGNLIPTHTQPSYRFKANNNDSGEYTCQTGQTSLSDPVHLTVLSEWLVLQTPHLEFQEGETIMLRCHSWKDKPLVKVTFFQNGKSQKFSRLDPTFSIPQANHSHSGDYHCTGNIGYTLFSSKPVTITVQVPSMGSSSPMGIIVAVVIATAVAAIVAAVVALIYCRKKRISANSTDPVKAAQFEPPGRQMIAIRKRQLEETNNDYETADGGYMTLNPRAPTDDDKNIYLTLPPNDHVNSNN
From the text: Indirect immunofluorescence binding analysis of 5A6 MAb to native FcγRIIA expressed on K562 erythroleukemia cells (ATCC No. CCL-243) is presented in FIG. 16. Separated aliquots of K562 cells were stained with either a mIgG1 isotype control (mopc 21), 5A6 (anti-human FcγRIIB) monoclonal antibody or Medarex 4.3 MAb (anti-human FcγRIIA/B) monoclonal antibody.

| Binder | IC50 [1] | IC50 [2] | ECD to bispecific ratio at which binding to cells is decreased (complete blocking only with both ECDs) [4] | also measured |
| --- | --- | --- | --- | --- |
| B1 | 0.49 µg/mL and 0.291 µg/mL | 0.0552 µg/mL and 0.076 µg/mL | – | – |
| B2 | – | 100 µg/mL | – | IC50 [3]: 2800 µg/mL |
| B3 | 0.0765 µg/mL | 0.023 µg/mL | – | – |
| B4 | – | – | 10 ratio ECD:bispecific | – |
| B5 | – | – | 10 ratio ECD:bispecific | – |
| B6 | – | – | – | EC50 [5]: 60 pM; binding result [6]: no binding |
